No end group written: not given here.
Legend:
[1] = test system: normal human intestinal epithelial cells FHC; assay: Effect of gefitinib on normal cells (FHC control in CCK-8 / clone formation); type: cell-based; settings: gefitinib 4 μM
Text: • (1) The colorectal cancer cells HT29 (KRas wt) and HCT116 (KRas G13D) in the logarithmic growth phase and the normal human intestinal epithelial cells FHC were digested with pancreatin and then prepared into a single cell suspension, and the cells were evenly inoculated in a 12-well plate by 500 cells per well. […] Cell culture solution was replaced every other 1-2 days, and the culture was stopped until cell clones (more than 50 cells were considered as one clone) were seen under a light microscope. • (3) After the supernatant of each group was discarded, the cells were washed twice with the PBS buffer solution, and dried in air. A proper amount of methanol stationary liquid was added into each well for cell fixation for 15 minutes, and residual stationary liquid in the well was washed off with PBS solution, and dried in air. A proper amount of crystal violet staining solution was added into each well for cell staining for 15 minutes, and residual staining solution in the well was washed off with PBS solution, and dried in air. The cell clones seen in the auxiliary wells of each group were counted under an inverted microscope and the number of the clones was calculated. • (4) Statistical analysis was carried out by using GraphPad Prism8 software, and one way anova was used to compare means of multiple groups. The difference was statistically significant when P<0.05.

[2] = test system: tumors derived from the KRas mutant-type HCT116 cells; assay: In vivo Cy5 imaging of tumor targeting, HCT116 tumors; design: species or system mice; settings: tail vein 60 μM, 100 μL, 2.5 hours, compared with Cy5 single molecule
Text: (§1) • (1) 10 female Balb/c nude mice aged 4 weeks to 5 weeks (Guangdong Laboratory Animal Center) were purchased, and then 500,000 HT29cells and 500,000 HCT116 cells were subcutaneously injected into left and right sides of the mice respectively. One week later, the mice were divided into two groups, with five mice in each group, which were the experimental group and the control group respectively. Raising and experiment of the mice were both carried out in the Laboratory Animal Center of Sun Yat-sen University, and all the operations were in accordance with the management method of laboratory animals of Sun Yat-sen University and complied with the animal ethical rules. • (2) The TKD-Cy5 molecule and the Cy5 single molecule constructed above were injected into the mice by tail vein at a concentration of 60 μM and a volume of 100 μL, wherein the TKD-Cy5 injection group was the experimental group and the Cy5 single molecule injection group was the control group. • (3) After 2.5 hours of tail vein injection, the mice were anesthetized with isoflurane. Cy5 imaging detection was conducted by using IVIS Lumina (PerkinElmer), with a fluorescence detection form of fluorescence. • (4) Experimental results were shown in FIG. 15.

[3] = In vivo Cy5 imaging, other tissues and organs; design: species or system mice; settings: tail vein 60 μM, 100 μL; 2.5 hours
Text: as §1

[4] = test system: tumors derived from the KRas wild-type cells HT29; assay: In vivo Cy5 imaging of tumor targeting, HT29 tumors; design: species or system mice; settings: tail vein 60 μM, 100 μL, 2.5 hours, compared with Cy5 single molecule
Text: as §1

| Molecule | toxic and side effects on normal cells [1] | aggregation in tumors (Cy5 imaging) [2] | targeting of other tissues and organs (Cy5 imaging) [3] | aggregation in tumors (Cy5 imaging) [4] |
| --- | --- | --- | --- | --- |
| COc1cc2ncnc(Nc3ccc(F)c(Cl)c3)c2cc1OCCCN1CCOCC1 [gefitinib] | could not cause toxic and side effects on normal cells |  |  |  |
| TKD-Cy5: TKD molecules labeled with fluorescent dye Cy5 to form TKD-Cy5 covalent conjugates (TKDNNLLGRFELSG; also: Cy5 dye conjugate, site not given here; UniProt P0DMV8 450-463, looked up, fragment) |  | could aggregate in tumors | except bladder retention caused by metabolism in vivo as in the control group, TKD-Cy5 could not target other tissues and organs of the mice | could aggregate in tumors |
